Results reported in patent US20260258115A1 (MAPP BIOPHARMACEUTICAL, published 2026).
Substitutions are numbered along the chain they refer to.

B1: ADI-25532 (antibody, V domains shown)
VH: QVQLVQSGGGLVKPGGSLRLSCAASGFTFSSYSMNWVRQAPGKGLEWVSSISSSSSYIYYADSVKGRFTISRDNAKNSLYLQMNSLRAEDTAVYYCARGSSSSWYYFDYWGQGTLVTVSS
VL: QSVVTQPPSVSGAPGQRVTISCTGSSSNIGAGYDVHWYQQLPGTAPKLLIYGNSNRPSGVPDRFSGSKSGTSASLAITGLQAEDEADYYCQSYDSSLSYVFGTGTKVTVL
notes: full-length IgG
B2: ADI-24828 (antibody, V domains shown)
VH: EVQLVESGGGLVKPGGSLRLACAASGFSFRSYRMNWVRQAPGKGLEWVSSISSSSSYIDYADSVKGRFTISRDNAKNTVYLQVNSLRAEDTAVYYCARDGRTIFGVVIDYWGQGTLVTVSS
VL: B1 VL with V4L, S54N, A76V, Y99V, T103G, V107L
notes: full-length IgG; also called Ab 390
B3: ADI-24842 (antibody, V domains shown)
VH: QVQLVQSGGGLVKPGGSLRLSCAASGFTFSSYSMNWVRQAPGKGLEWVSSISSSSSYIYYADSVKGRFTISRDNAKNSLYLQMNSLRAEDTAVYYCARVPPHDYGGYYFDYWGQGTLVTVSS
VL: B1 VL with G52R, T78I, Y99V, T103G, V107L
notes: full-length IgG
B4: ADI-24839 (antibody, V domains shown)
VH: EVQLVESGGGLVKPGGSLRLSCAASGFTFSSYSMNWVRQAPGKGLEWVSSISSSSSYIYYADSVKGRFTISRDNAKNSLYLQMNSLRAEDTAVYYCARVLVATAYGNAFDIWGQGTMVTVSS
VL: B1 VL with V4L, S98T, Y99V, T103G, V107L
notes: full-length IgG
B5: ADI-24819 (antibody, V domains shown)
VH: B1 VH with Q1E, V5L, Q6E, G99E, S101G, S103G
VL: B1 VL with V4L, S95G, Y99G, T103G
notes: full-length IgG
B6: ADI-25462 (antibody, V domains shown)
VH: B1 VH with Q1E, Q6E, D73H, Y105F, Y106C
VL: B1 VL with Q1S, S2Y, V4L, V107L
notes: full-length IgG
B7: ADI-25495 (antibody, V domains shown)
VH: QVQLVQSGGGLVKPGGSLRLSCAASGFTFSSYSMNWVRQAPGKGLEWVSSISSSSSYIYYADSVKGRFTISRDNAKNSLYLQMNSLRAEDTAVYYCARGYCTNGVCYLDAFDIWGQGTTVTVSS
VL: QSVLIQPASVSGSPGQSITISCTGTSSDVGGYNYVSWYQQHPGKAPKLMIYDVSNRPSGVSNRFSGSKSGNTASLTISGLQAEDEADYYCSSYTSSSTPVVFGGGTKVTVL
notes: full-length IgG
B8: ADI-24849 (antibody, V domains shown)
VH: QVQLVQSGGVVVQPGGSLRLSCAASGFTFDDYTMHWVRQAPGKGLEWVSLIGWDGGSTYYADSVKGRFTISRDNSKYSLYLQMNSLRTEDTALYYCAKDLGSSSGYFLGRDYYGMDVWGQGTTVTVSS
VL: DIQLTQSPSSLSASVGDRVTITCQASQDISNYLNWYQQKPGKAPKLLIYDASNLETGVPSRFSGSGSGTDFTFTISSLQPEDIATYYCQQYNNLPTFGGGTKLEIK
notes: full-length IgG; also called Ab 410
B9: ADI-24814 (antibody, V domains shown)
VH: EVQLLESGGGVVQPGRSLRLSCAASGFTFNSYTMHWVRQAPGKGLEWVAVISYDGSNKYYADSVKGRFTISRDNSKNTLYLQMNSLRAEDTAVYYCARGRPYDFWSGYYTDYYYYMDVWGKGTTVTVSS
VL: EIVLTQSPGTLSLSPGERATLSCRASQSVYSNYLAWYQQKPGQAPRLLIYGASSRATGIPDRFSGSGSGTDFTLTISRLEPEDFAVYYCQQCGSSWTFGQGTKVEIK
notes: full-length IgG
B10: ADI-24817 (antibody, V domains shown)
VH: EVQLVESGGGLVKPGGSLRLSCAASGFTFSSYSMNWVRQAPGKGLEWVSSISSSSSYIYYADSVKGRFTISRDNAKNSLYLQMNSLRAEDTAVYYCARDSMALLYSNYWFDPWGQGTLVTVSS
VL: QSVVTQPPSVSGAPGQRVTISCTGSSSNIGAGYDVHWYQQLPGTAPKLLIYGNSNRPSGVPDRFSGSKSGTSASLAITGLQAEDEADYYCQSYDSSLSGSVFGGGTKLTVL
notes: full-length IgG
B11: ADI-24850 (antibody, V domains shown)
VH: B3 VH with V99E, P100D, P101Y, H102G, G105Y, G106Y, F109M, Y111V, Q114K, L117T
VL: B10 VL with S2P, V4L, S100Y, G104T, L108V
notes: full-length IgG
B12: ADI-24835 (antibody, V domains shown)
VH: EVQLVESGGGLVKPGGSLRLSCAASGFPFSTSSMNWVRQAPGKGLEWVSSISSSSSYIDYADSVKGRFTISRDNAKNSLYLQMNSLRAGDTAVYYCARVPRSDWYYFDYWGQGTLVTVSS
VL: B10 VL with L48F, G52D, S54K, N55Y, S100Y, G104T
notes: full-length IgG
B13: ADI-24832 (antibody, V domains shown)
VH: EVQLVESGGGLVKPGGSLRLSCAASGFTFSSYSMNWVRQAPGKGLEWVSSISASSSYIFYSDLVKGRFTISRDNAKNSLYLQMNSLRAEDTAVYYCARAGYYYGSGSYYVDYWGQGTLVTVSS
VL: B10 VL with V4L, T19A, D94G, S100W
notes: full-length IgG
B14: ADI-24831 (antibody, V domains shown)
VH: B3 VH with Q6E, P101S, H102D, D103F, Y104W, G105S, F109N
VL: QSVLTQPPSVSGAPGQRVTISCTGSSSNIGAGYDVHWYQQLPGTAPKLLIYGNSNRPSGVPDRFSGSKSGTSASLAITGLQAEDEADYYCQSYDSSLSGSWVFGGGTKLTVL
notes: full-length IgG; also called Ab 393

target: RSV F on RSV subtype A virus (mKate-RSV A2) (respiratory syncytial virus A2, UniProt P03420 26-574); experiment: cell-based or functional assay

First: B1
Second: B2
The “Neut IC50 subtype A” value of the first is 2-fold higher: 0.04 mg/L for the first, 0.02 mg/L for the second.

First: B3
Second: B4
The “Neut IC50 subtype A” value of the first is 15-fold lower: 0.03 mg/L for the first, 0.44 mg/L for the second.

Compared with B5, B6 is 29-fold lower in “Neut IC50 subtype A” value: 4.33 mg/L for the first, 0.15 mg/L for the second.

Compared with B7, B8 is 24-fold lower in “Neut IC50 subtype A” value: 0.24 mg/L for the first, 0.01 mg/L for the second.

Compared with B9, B10 is 3-fold higher in “Neut IC50 subtype A” value: 0.73 mg/L for the first, 2.2 mg/L for the second.

B11 and B12 are within 1.5-fold of each other in “Neut IC50 subtype A” value: 0.94 mg/L for the first, 0.63 mg/L for the second.

Compared with B13, B14 is 2.3-fold lower in “Neut IC50 subtype A” value: 0.49 mg/L for the first, 0.21 mg/L for the second.

target: RSV F on RSV subtype B virus (mKate-RSV B 18537) (respiratory syncytial virus B 18537, UniProt P13843 26-574); experiment: cell-based or functional assay

B1 and B2 are within 1.5-fold of each other in “Neut IC50 subtype B” value: 0.05 mg/L for the first, 0.04 mg/L for the second.

Going from B3 to B4, the “Neut IC50 subtype B” value rises from 0.03 mg/L to 4.1 mg/L (140-fold).

Going from B5 to B6, the “Neut IC50 subtype B” value falls from 6.28 mg/L to 0.11 mg/L (57-fold).

Compared with B7, B8 is 190-fold lower in “Neut IC50 subtype B” value: 5.6 mg/L for the first, 0.03 mg/L for the second.

First: B9
Second: B10
The “Neut IC50 subtype B” value of the first is 14-fold lower: 0.32 mg/L for the first, 4.4 mg/L for the second.

Going from B11 to B12, the “Neut IC50 subtype B” value falls from 4.17 mg/L to 1.06 mg/L (3.9-fold).

First: B13
Second: B14
The “Neut IC50 subtype B” value of the first is 14-fold lower: 0.24 mg/L for the first, 3.29 mg/L for the second.

target: T1, RSV prefusion F (preF), subtype B (respiratory syncytial virus subtype B); experiment: BLI, IgG
T1 construct: also called Prefusion subtype B

Compared with B1, B2 is 4-fold lower in Kd: 1.56 nM for the first, 0.391 nM for the second. The second binds more tightly here.

First: B3
Second: B4
The Kd of the first is 3.5-fold lower: 2.76 nM for the first, 9.63 nM for the second.

Going from B5 to B6, the Kd falls from 9.44 nM to 1.71 nM (5.5-fold).

Going from B7 to B8, the Kd falls from 6.41 nM to 1.17 nM (5.5-fold).

First: B9
Second: B10
The Kd of the first is 3.9-fold lower: 2.39 nM for the first, 9.23 nM for the second. The first binds more tightly here.

B11 and B12 are within 1.5-fold of each other in Kd: 5.56 nM for the first, 5.55 nM for the second.

Going from B13 to B14, the Kd rises from 1.95 nM to 6.23 nM (3.2-fold). The first binds more tightly here.

target: T2, RSV postfusion F (postF), subtype A (respiratory syncytial virus subtype A, UniProt P03420 26-513); experiment: BLI
T2 construct: also called Postfusion subtype A; F deltaFP

B1: no binding.
B2: no binding.
B3: no binding.
B4: no binding.
B5: no binding.
B6: no binding.
B7: no binding.
B8: no binding.
B9: no binding.
B10: no binding.
B11: no binding.
B12: no binding.
B13: no binding.
B14: no binding.
